The target in experiment [1] is CD71 (on cancer stem cells and cancer cell lines) (UniProt P02786 1-760, limits assumed). The experiment in a line: cell-based or functional assay.
A further experiment concerns the target T1, BSA (UniProt P02769 25-607).
T1 construct: Negative control
The experiment in a line: ELISA, 100 nM coated protein. A general note: ELISA stands for enzyme-linked immunosorbent assay.

Another experiment addresses T2, CTLA-4 (UniProt P16410 36-161, limits assumed).
T2 construct: Negative control; The construct is not described
T2 sequence (looked up): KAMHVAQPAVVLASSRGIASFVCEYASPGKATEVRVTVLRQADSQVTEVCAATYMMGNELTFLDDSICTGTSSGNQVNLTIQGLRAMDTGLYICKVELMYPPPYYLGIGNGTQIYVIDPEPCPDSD
In words: ELISA, 100 nM coated protein.

CD71 (on cancer stem cells and cancer cell lines), sequence (P02786 whole entry): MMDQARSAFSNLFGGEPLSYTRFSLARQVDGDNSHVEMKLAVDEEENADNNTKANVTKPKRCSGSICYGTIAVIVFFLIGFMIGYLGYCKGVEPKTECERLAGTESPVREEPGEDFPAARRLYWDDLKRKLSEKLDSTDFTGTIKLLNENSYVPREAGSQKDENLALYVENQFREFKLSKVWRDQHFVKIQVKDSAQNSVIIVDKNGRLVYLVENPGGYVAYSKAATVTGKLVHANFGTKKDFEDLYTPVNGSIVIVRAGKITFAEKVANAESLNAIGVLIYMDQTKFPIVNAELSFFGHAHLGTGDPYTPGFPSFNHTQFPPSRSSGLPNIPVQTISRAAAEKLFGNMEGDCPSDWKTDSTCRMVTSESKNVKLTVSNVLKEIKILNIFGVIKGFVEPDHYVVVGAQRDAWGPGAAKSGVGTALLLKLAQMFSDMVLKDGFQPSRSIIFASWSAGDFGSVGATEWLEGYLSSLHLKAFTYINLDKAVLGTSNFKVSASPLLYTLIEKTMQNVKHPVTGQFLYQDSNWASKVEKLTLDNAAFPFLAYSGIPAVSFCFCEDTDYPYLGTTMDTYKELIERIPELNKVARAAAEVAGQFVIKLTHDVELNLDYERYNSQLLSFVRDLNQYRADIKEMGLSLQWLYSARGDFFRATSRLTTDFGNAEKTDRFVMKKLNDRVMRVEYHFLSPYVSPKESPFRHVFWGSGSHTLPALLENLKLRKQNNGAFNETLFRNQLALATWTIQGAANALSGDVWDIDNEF
T1 sequence (P02769 25-607 limits assumed): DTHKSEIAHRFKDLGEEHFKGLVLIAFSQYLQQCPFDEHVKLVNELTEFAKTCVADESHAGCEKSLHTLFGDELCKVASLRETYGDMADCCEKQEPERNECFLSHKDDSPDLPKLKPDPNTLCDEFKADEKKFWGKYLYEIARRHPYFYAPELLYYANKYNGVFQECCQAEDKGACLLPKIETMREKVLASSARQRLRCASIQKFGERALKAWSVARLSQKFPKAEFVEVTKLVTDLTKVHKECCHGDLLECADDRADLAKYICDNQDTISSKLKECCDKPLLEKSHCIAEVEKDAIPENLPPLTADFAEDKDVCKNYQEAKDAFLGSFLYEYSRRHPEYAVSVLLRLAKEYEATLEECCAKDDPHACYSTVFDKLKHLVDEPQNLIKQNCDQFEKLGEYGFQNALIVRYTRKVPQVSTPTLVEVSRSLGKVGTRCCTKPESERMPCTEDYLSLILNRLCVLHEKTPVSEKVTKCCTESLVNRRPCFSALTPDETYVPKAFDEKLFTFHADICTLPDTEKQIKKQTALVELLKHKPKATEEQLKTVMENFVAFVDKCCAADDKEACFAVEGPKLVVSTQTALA

B1: 1E12 항체 (antibody, V domains shown)
VH: QMQLVQSGAEVKKPGASVKVSCKASGYIFTDYYMHWVRQAPGQGLEWMGGISPIFGTANYAQNFQGRVTITADESTTTAYMELSNLRSEDTAVYYCAKDGAGPEYYYYGLDVWGQGTSVTVSS
VL: QSALTQPPSVSGSPGQSVTISCTGTSSDIGGYNYVSWYQHHPGKAPKLVISEVTKRPSGVPGRFSGSKSGNTASLTVSGLQAEDEADYYCSSYSDSDNLLFGGGTKLTVLG
notes: also called b) 단클론 항체
As for B1, the “EC50 세포성장 저해, parent암 세포주 (AlamarBlue)” value in experiment [1] came out at 18.3 nM. For the same molecule, the “EC50 세포성장 저해, 암 줄기세포주 (AlamarBlue)” value in experiment [1] is 53.3 nM. Besides, the binding result with BSA and with CTLA-4 was “no binding (tested: 1μg/mL)” each time.

Source of the values: patent publication KR20200132110A (dated 2020).
